# From patent US20210238276A1 (INTEGRAL MOLECULAR, published 2021)
# Where a chain is given by its changes, count along the chain named.
# T1: hsGLUT4 L61A (human, UniProt P14672 1-509)
# T1 sequence: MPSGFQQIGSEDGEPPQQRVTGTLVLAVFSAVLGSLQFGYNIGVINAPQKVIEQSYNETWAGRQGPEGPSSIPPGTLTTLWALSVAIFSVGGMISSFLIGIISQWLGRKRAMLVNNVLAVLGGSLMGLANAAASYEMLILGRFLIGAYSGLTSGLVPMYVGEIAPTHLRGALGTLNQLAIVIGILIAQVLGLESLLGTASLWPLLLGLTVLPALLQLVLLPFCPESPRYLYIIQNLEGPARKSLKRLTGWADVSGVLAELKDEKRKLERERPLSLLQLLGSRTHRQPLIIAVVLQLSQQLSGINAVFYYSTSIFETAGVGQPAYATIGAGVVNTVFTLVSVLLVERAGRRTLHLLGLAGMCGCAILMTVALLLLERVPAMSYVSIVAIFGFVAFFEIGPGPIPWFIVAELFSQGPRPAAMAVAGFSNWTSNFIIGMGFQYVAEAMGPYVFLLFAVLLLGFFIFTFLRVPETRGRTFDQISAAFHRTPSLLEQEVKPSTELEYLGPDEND
# T2: hsGLUT4 R416A (human, UniProt P14672 1-509)
# T2 sequence: T1 sequence with A61L, R416A
# T3: hsGLUT4 G504A (human, UniProt P14672 1-509)
# T3 sequence: T1 sequence with A61L, G504A
# T4: hsGLUT4 E507A (human, UniProt P14672 1-509)
# T4 sequence: T1 sequence with A61L, E507A
# B1: AB102 (Fc fusion)
# scFv: ALTQPSSVSANLGGTVKITCSGGGSYGYGWYQQKSPGSAPVTVIYSNDQRPSDIPSRFSGSKSGSTATLTITGVRAEDEAIYYCGSTDSDYVGIFGAGTTLTVLGQSSRSSGGGGSSGGGGSAVTLDESGGGLQTPGGTLSLVCKASGFDFSSYATIWVRQAPGKGLEWVAGISGTGTGSSTGYAPAVKGRATISRDNGQSTVRLQLNNLRAEDTGSYFCAKSTGYGDSWIYPDSIDAWGHGTEVIVSS
# notes: also called MAb AB102; not shown: Fc fragment of human IgG1, cloned in frame with the scFv
# What was measured:
# Experiment in all cases: flow cytometry, alanine-scan library in HEK-293T, with cytochalasin B
# hsGLUT4 L61A = molecular target: T1, hsGLUT4 L61A
# Method in brief: (§1)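 HEK-293T cells expressing individual GLUT4 alanine mutants were stained 48 h post-transfection with anti-GLUT4 scFv MAbs (2 μg/ml), then biotinylated secondary and streptavidin-PerCP, and read by high-throughput flow cytometry. Where used, cytochalasin B (10 uM final) was given for 30 min before and during primary antibody staining.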
# hsGLUT4 R416A = molecular target: T2, hsGLUT4 R416A
# Method in brief: as §1
# hsGLUT4 G504A = molecular target: T3, hsGLUT4 G504A
# Method in brief: as §1
# hsGLUT4 E507A = molecular target: T4, hsGLUT4 E507A
# Method in brief: as §1
binder,measurement,setting,value
B1,% of binding to wild type GLUT4,hsGLUT4 L61A,69%
same,% of binding to wild type GLUT4,hsGLUT4 R416A,70%
same,% of binding to wild type GLUT4,hsGLUT4 G504A,71%
same,% of binding to wild type GLUT4,hsGLUT4 E507A,97%
